Laboratory results taken from article PMC9728185.
“And” between values parts separate entries of the source, which are not always exact repeats. Equal values may be shown once.

Molecular target: Glycerol dehydrogenase from Klebsiella pneumoniae (encoded by gldA, strain MGH78578) (Klebsiella pneumoniae strain MGH78578)
Assay: SEC; analytical Superdex-200 10/300 GL, 20 mM Tris-HCl, 0.1 mM TCEP, 200 mM NaCl, pH 8.0, 0.5 ml/min; 200 ul of purified KpGlyDH at 4.94 mg/ml; masses from a standard curve of reference proteins; octamer and hexadecamer in equilibrium

- stoichiometry N: 8 and 16
Substance: Glycerol dehydrogenase from Klebsiella pneumoniae (encoded by gldA, strain MGH78578) (enzyme)
